For six sequences, activity and binding signal (normalized ELISA) results are on record in patent US20110301073.

The subject of series [1] is POU5F1 TALEN 101229 (half repeat for G) (Xanthomonas sp. (engineered)). The series is described as follows: cell_activity. The settings on record: paired with 101138.
The test system of series [2] is TALE test backbone, repeat 5 RVD KS (synthetic (Xanthomonas TALE)). The following applies: ELISA. In general terms: ELISA stands for enzyme-linked immunosorbent assay.
The subject of series [3] is TALE test backbone, repeat 5 RVD SG (synthetic (Xanthomonas TALE)). The settings on record: ELISA.
In series [4] the test system is TALE test backbone, repeat 5 RVD NI (Xanthomonas sp. (engineered)). The following applies: RVD NI.
Series [5] deals with TALE test backbone, repeat 5 RVD AT (synthetic (Xanthomonas TALE)). The settings on record: ELISA.
Series [6] concerns TALE test backbone, repeat 5 RVD DK (synthetic (Xanthomonas TALE)). The settings on record: ELISA.
Series [7] relates to TALE test backbone, repeat 5 RVD QA (synthetic (Xanthomonas TALE)). The following applies: ELISA.
The test system of series [8] is TALE test backbone, repeat 5 RVD HD, standard framework (SEQ 333) (Xanthomonas sp. (engineered)). The following applies: RVD HD.
Series [9] has as its system TALE test backbone, repeat 5 RVD NS (synthetic (Xanthomonas TALE)). The following applies: ELISA.
Series [10] concerns TALE test backbone, repeat 5 RVD QG (synthetic (Xanthomonas TALE)). The settings on record: ELISA.
The subject of series [11] is TALE test backbone, repeat 5 RVD NN (Xanthomonas sp. (engineered)). The settings on record: RVD NN.
Series [12] relates to TALE test backbone, repeat 5 RVD HN (synthetic (Xanthomonas TALE)). The settings on record: ELISA.
The subject of series [13] is TALE test backbone, repeat 5 RVD YG (synthetic (Xanthomonas TALE)). The settings on record: ELISA.
Series [14] has as its system TALE test backbone, repeat 5 RVD AE (synthetic (Xanthomonas TALE)). The following applies: ELISA.
Series [15] has as its system TALE test backbone, repeat 5 RVD RA (synthetic (Xanthomonas TALE)). The following applies: ELISA.
Series [16] concerns TALE test backbone, repeat 5 RVD TA (synthetic (Xanthomonas TALE)). The settings on record: ELISA.
Series [17] relates to TALE test backbone, repeat 5 RVD IP (synthetic (Xanthomonas TALE)). The settings on record: ELISA.
The test system of series [18] is TALE test backbone, repeat 5 RVD LA (synthetic (Xanthomonas TALE)). The settings on record: ELISA.
For series [19], the system named is TALE test backbone, repeat 5 RVD ND (synthetic (Xanthomonas TALE)). The settings on record: ELISA.
Series [20] deals with TALE test backbone, repeat 5 RVD AN (synthetic (Xanthomonas TALE)). The settings on record: ELISA.
The test system of series [21] is TALE test backbone, repeat 5 RVD HG (synthetic (Xanthomonas TALE)). The following applies: ELISA.
Series [22] concerns TALE test backbone, repeat 5 RVD AA (synthetic (Xanthomonas TALE)). The following applies: ELISA.
In series [23] the test system is TALE test backbone, repeat 5 RVD KG (synthetic (Xanthomonas TALE)). The following applies: ELISA.
Series [24] concerns TALE test backbone, repeat 5 RVD TP (synthetic (Xanthomonas TALE)). The following applies: ELISA.
Series [25] concerns TALE test backbone, repeat 5 RVD AK (Xanthomonas sp. (engineered)). The settings on record: RVD AK; other bases 0.00-0.01.
The test system of series [26] is TALE test backbone, repeat 5 RVD HA (synthetic (Xanthomonas TALE)). The following applies: ELISA.
In series [27] the test system is TALE test backbone, repeat 5 RVD KD (synthetic (Xanthomonas TALE)). The settings on record: ELISA.
The subject of series [28] is TALE test backbone, repeat 5 RVD NK (Xanthomonas sp. (engineered)). The settings on record: RVD NK; other bases 0.00.
Series [29] has as its system TALE test backbone, repeat 5 RVD IG (synthetic (Xanthomonas TALE)). The settings on record: ELISA.
The subject of series [30] is TALE test backbone, repeat 5 RVD KI (synthetic (Xanthomonas TALE)). The following applies: ELISA.
Series [31] deals with TALE test backbone, repeat 5 RVD AD (synthetic (Xanthomonas TALE)). The following applies: ELISA.
For series [32], the system named is TALE test backbone, repeat 5 RVD SN (Xanthomonas sp. (engineered)). The settings on record: RVD SN.
The subject of series [33] is TALE test backbone, repeat 5 RVD VG (synthetic (Xanthomonas TALE)). The settings on record: ELISA.
Series [34] relates to TALE test backbone, repeat 5 RVD GG (synthetic (Xanthomonas TALE)). The settings on record: ELISA.
Series [35] has as its system TALE test backbone, repeat 5 RVD IA (synthetic (Xanthomonas TALE)). The settings on record: ELISA.
Series [36] has as its system TALE test backbone, repeat 5 RVD DH (Xanthomonas sp. (engineered)). The settings on record: RVD DH.
The test system of series [37] is TALE test backbone, repeat 5 RVD KN (Xanthomonas sp. (engineered)). The settings on record: RVD KN.
Series [38] concerns TALE test backbone, repeat 5 RVD KT (synthetic (Xanthomonas TALE)). The following applies: ELISA.
The subject of series [39] is TALE test backbone, repeat 5 RVD RI (synthetic (Xanthomonas TALE)). The following applies: ELISA.
In series [40] the test system is TALE test backbone, repeat 5 RVD RG (synthetic (Xanthomonas TALE)). The settings on record: ELISA.
Series [41] concerns TALE test backbone, repeat 5 RVD NA (synthetic (Xanthomonas TALE)). The settings on record: ELISA.
Series [42] concerns TALE test backbone, repeat 5 RVD HI (synthetic (Xanthomonas TALE)). The settings on record: ELISA.
Series [43] has as its system POU5F1 TALEN 101125 (Xanthomonas sp. (engineered)). The series is described as follows: cell_activity. The following applies: paired with 101225.
Series [44] has as its system POU5F1 TALEN 101138 (Xanthomonas sp. (engineered)). The series is described as follows: cell_activity. The settings on record: paired with 101229.
In series [45] the test system is POU5F1 TALEN 101225 (NN half repeat) (Xanthomonas sp. (engineered)). The series is described as follows: cell_activity. The settings on record: paired with 101125; NN half repeat.
Series [46] concerns TALE test backbone, repeat 5 RVD VG (Xanthomonas sp. (engineered)). The settings on record: RVD VG.
Series [47] deals with TALE test backbone, repeat 5 RVD NG (Xanthomonas sp. (engineered)). The following applies: RVD NG.
The subject of series [48] is TALE test backbone, repeat 5 RVD IA (Xanthomonas sp. (engineered)). The following applies: RVD IA.
For series [49], the system named is TALE test backbone, repeat 5 RVD SN (synthetic (Xanthomonas TALE)). The following applies: ELISA.
Series [50] deals with TALE test backbone, repeat 5 RVD DH (synthetic (Xanthomonas TALE)). The following applies: ELISA.
The test system of series [51] is TALE test backbone, repeat 5 RVD TP (Xanthomonas sp. (engineered)). The settings on record: RVD TP.

On to “CCCCCATTCCTAGAAGG (double strand) [101229 site]”, for which the activity in [1] turned out to be 25.6 % NHEJ.

For the sequence “TTGACGATCCT (double strand) [CGA target]”, the binding signal (normalized ELISA) in [2] amounted to 0.74; in series [3] it was 0.2; in series [4] it was 0.02; in series [5] it was 0.76; in series [6] it was 0.15; in series [7] it was 0.03. Besides, the binding signal (normalized ELISA) in [8] was determined as 0; in series [9], 0.71; in series [10], 0.05; in series [11] it was 0.81; in series [12], 0.86; in series [13], 0.01. Moreover, the binding signal (normalized ELISA) in series [14] amounted to 0; in series [15], 0.53; in [16] it was 0.01; in series [17], 0; in series [18] it was 0; in series [19], 0. In addition, the binding signal (normalized ELISA) in series [20] came out at 0.87; in series [21], 0.11; in series [22], 0.06; in series [23], 0.2; in [24], 0.01; in series [25] it was 0.21. Moreover, the binding signal (normalized ELISA) in [26] came to 0.24; in series [27], 0; in series [28], 0.15; in [29] it was 0.01; in [30], 0.02; in series [31] it was 0. For the same sequence, the binding signal (normalized ELISA) in series [32] worked out at 0.92; in series [33] it was 0.01; in series [34] it was 0.25; in series [35] it was 0.02; in [36] it was 0.36; in [37] it was 1. The binding signal (normalized ELISA) came to 0.83 in series [38]; 0.02 in [39]; 0.12 in [40]; 0.41 in series [41]; 0.04 in series [42].

Sequence “GACCCTGCCTGCTCCT (double strand) [101125 site]” gave an activity in series [43] of 5 % NHEJ.

In [44], “CTGGGCTCTCCCAT (double strand) [101138 site]” had an activity of 25.6 % NHEJ.

In series [45], “CACCTGCAGCTGCCCAG (double strand) [101225 site]” returned an activity of 5 % NHEJ.

Turning to “TTGACTATCCT (double strand) [CTA target]”, the binding signal (normalized ELISA) worked out at 0.81 in series [2]; 1.23 in [3]; 0.02 in [4]; 0.56 in [5]; 0 in [6]; 1.24 in [7]. For the same sequence, the binding signal (normalized ELISA) in series [8] was found to be 0.09; in [9], 0.54; in [10] it was 1.09; in [46], 0.56; in series [12], 0.01; in series [13], 0.79. The binding signal (normalized ELISA) worked out at 0 in series [14]; 1.64 in series [15]; 0.76 in [16]; 0.84 in series [17]; 0.51 in series [18]; 0.02 in series [19]. The binding signal (normalized ELISA) came to 0.01 in series [20]; 1.49 in series [21]; 0.61 in series [22]; 1.3 in [47]; 1.29 in [23]; 1.2 in series [48]. Further, the binding signal (normalized ELISA) worked out at 0.02 in series [49]; 1.54 in series [26]; 0.05 in [27]; 0.68 in series [29]; 0.04 in [30]; 0.01 in series [31]. In addition, the binding signal (normalized ELISA) in [34] was found to be 1.52; in series [50] it was 0.03; in series [38] it was 0.67; in [39], 0.02; in [40], 0.87; in [41], 1.72. In addition, the results for the binding signal (normalized ELISA) in series [42] and in [51] were 0.04 and 1.2, respectively.
